# Measurements: patent US20060115810A1
# Target: extracellular region of the human tumor antigen c-erbB-2 (human) (UniProt P04626)
# Experiment: method not given
substance,measurement,value
scFv C6.5,Kd,160 pM
